The target in one data set is T1, HEN1 Δ38-45 (Arabidopsis thaliana, UniProt Q9C5Q8 1-37+=G+46-942, internal_change).
T1 sequence: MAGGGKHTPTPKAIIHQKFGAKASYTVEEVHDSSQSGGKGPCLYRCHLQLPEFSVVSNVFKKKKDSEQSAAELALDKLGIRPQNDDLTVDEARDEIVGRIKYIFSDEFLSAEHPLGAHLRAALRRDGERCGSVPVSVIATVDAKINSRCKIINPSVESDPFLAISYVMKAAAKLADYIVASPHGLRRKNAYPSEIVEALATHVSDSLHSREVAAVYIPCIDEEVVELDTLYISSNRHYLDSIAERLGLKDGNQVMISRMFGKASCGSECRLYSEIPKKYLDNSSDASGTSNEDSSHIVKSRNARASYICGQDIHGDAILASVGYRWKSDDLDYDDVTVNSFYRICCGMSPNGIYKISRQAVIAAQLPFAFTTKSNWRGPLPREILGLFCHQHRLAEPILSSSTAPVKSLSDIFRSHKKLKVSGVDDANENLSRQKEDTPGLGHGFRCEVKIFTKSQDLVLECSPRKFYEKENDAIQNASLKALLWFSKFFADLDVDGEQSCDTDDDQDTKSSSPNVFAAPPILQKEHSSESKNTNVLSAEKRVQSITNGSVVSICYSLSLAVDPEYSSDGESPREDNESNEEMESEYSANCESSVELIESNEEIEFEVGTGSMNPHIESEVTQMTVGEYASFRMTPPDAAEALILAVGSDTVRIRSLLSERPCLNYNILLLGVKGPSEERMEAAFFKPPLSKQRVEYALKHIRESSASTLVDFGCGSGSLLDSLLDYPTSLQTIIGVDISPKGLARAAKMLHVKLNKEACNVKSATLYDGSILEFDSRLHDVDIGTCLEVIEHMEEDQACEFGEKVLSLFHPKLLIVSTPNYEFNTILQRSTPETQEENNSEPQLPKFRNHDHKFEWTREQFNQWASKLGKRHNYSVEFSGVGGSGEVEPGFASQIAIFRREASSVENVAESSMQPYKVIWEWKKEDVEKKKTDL
In words: EMSA.

The target of a further data set is T2, HEN1-RHK389,397,477AAA (Arabidopsis thaliana, UniProt Q9C5Q8 1-942, R389A;H397A;K477A).
T2 sequence: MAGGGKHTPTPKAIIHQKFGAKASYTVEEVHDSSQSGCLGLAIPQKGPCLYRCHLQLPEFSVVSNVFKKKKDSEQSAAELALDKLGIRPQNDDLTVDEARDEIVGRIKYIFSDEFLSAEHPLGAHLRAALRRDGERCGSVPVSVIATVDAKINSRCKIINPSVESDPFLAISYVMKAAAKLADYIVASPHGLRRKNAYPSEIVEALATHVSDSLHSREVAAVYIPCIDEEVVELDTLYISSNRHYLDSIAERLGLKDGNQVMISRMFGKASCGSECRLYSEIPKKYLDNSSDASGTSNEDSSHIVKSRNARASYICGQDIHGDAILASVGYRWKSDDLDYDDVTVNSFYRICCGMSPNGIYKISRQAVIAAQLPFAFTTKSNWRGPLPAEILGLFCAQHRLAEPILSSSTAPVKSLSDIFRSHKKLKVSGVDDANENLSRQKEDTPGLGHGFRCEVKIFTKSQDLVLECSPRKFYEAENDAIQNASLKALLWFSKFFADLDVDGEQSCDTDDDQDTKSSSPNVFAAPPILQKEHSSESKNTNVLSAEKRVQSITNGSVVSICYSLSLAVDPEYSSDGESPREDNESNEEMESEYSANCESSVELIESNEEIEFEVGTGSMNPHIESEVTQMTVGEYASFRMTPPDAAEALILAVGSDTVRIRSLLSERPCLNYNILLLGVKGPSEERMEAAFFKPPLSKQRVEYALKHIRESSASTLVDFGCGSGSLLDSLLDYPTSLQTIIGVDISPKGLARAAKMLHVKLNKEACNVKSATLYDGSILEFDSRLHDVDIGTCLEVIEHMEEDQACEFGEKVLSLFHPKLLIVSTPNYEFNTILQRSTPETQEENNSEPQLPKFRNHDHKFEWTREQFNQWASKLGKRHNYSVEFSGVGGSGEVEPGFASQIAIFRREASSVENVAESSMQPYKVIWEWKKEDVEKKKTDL
In words: EMSA. (A gel shift assay detects complexes by their altered migration in electrophoresis.)

B1: miR173/miR173* (dsRNA)
RNA 1: UUCGCUUGCAGAGAGAAAUCAC
RNA 2: GAUUCUCUGUGUAAGCGAAAG
A word on the Kd: it is the free concentration of one partner at which half of the binding sites on the other are occupied at equilibrium, for simple one-to-one binding. High values mean weaker binding, low ones tighter binding. Regarding B1, the Kd worked out at 0.32 ± 0.04 nM with HEN1 Δ38-45 and 302 ± 29 nM with HEN1-RHK389,397,477AAA.
